Laboratory results published in patent US20060259987A1 (UNIVERSITY OF UTAH RESEARCH FOUNDATION, published 2006).
Substitutions are numbered along the chain they refer to. In names and notes the source's numbering stands.

B1: 7EVEA.452 (other)
chain: SPVDICTAKPRDIPMNPMCIYRSPEKKATEDEGSEQKIPEATNRRVWELSKANSRFATTFYQHLADSKNDNDNIFLSPLSISTAFAMTKLGACNDTLQQLMEVFKFDTISEKTSDQIHFFFAKLNCRLYRKANKASKLVSANRLFGDKSLTFNETYQDISELVYGAKLQPLDFKENAEQSRAAINKWVSNKTEGRITDVIPSEAINELTVLVLVNTIYFKGLWKSKFSPENTRKELFYKADGESCSASMMYQEGKFRYRRVAEGTQVLELPFKGDDITMVLILPKPEKSLAKVEKELTPEVLQEWLDELEEMMLVVHMPRFRIEDGFSLKEQLQDMGLVDLFSPEKSKLPGIVAEGRDDLYVSDAFHKAFLEVNEEGSEAAASTEVELAGRSLNPNRVTFKANRPFLVFIREVPLNTIIFMGRVANPCVK
modifications: N-linked glycans added by Drosophila S2 cells; not carried by the letters
notes: Made in Drosophila S2 cells (DES) on the S137A background; N-terminus printed as SPVDI---
B2: 7EVEA.453 (other)
chain: B1 chain with L388F
modifications: N-linked glycans added by Drosophila S2 cells; not carried by the letters
notes: as for B1
B3: 7EVEA.454 (other)
chain: B1 chain with L388W
modifications: N-linked glycans added by Drosophila S2 cells; not carried by the letters
notes: as for B1

How the values were obtained:
[1] = molecular target: T1, factor Xa (human, UniProt P00742 41-179; P00742 235-488, limits assumed); assay: heparin cofactor assay, HCA expt #3; ATIII titrated on 10 nM fXa + 50 ug/ml UFH, chromogenic readout
T1 construct: Active factor Xa has a light and a heavy chain; also called fXa
Protocol: (§1) After 3 minutes, the reactions were quenched with polybrene and chromogenic substrate S2238 (thrombin) or S2765 (fXa), and the initial rate of chromophore production (405 nm) recorded to obtain a measurement residual, uninhibited thrombin or factor Xa. IC50s were determined from plots of ATIII concentration vs. percent residual target enzyme activity.

[2] = molecular target: T2, thrombin (human, UniProt P00734 328-622); assay: cell-based or functional assay
[3] = molecular target: T1, factor Xa; assay: cell-based or functional assay
[4] = molecular target: T2, thrombin; assay: heparin cofactor assay, HCA expt #3; ATIII titrated on 10 nM thrombin + 50 ug/ml UFH, chromogenic readout
Protocol: as §1

T1 sequence (P00742 41-179 limits assumed, form in doubt, chain 1 of 2): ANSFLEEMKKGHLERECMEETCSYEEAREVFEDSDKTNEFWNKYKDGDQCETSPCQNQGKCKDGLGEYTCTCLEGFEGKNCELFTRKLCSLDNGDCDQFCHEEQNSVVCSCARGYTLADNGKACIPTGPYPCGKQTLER
T1 sequence (P00742 235-488 limits assumed, form in doubt, chain 2 of 2): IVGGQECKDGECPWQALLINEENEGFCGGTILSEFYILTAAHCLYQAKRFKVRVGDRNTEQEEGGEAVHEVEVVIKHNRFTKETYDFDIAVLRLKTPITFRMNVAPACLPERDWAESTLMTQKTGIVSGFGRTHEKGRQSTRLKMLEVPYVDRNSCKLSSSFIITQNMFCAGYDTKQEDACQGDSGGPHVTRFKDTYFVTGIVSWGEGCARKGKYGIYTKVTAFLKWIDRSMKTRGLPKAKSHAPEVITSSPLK

| Binder | IC50 [1] [nM] | Rsd. IIa No add; CA expt #8; stg1 conc 200 [2] | rsd. IIa catG; CA expt #8; stg1 conc 200 [2] | rsd. IIa hne; CA expt #8; stg1 conc 200 [2] | rsd. Xa catG; CA expt #8; stg1 conc 200 [3] | rsd. Xa hne; CA expt #8; stg1 conc 200 [3] | rsd. Xa no add; CA expt #8; stg1 conc 200 [3] | IC50 [4] [nM] |
| --- | --- | --- | --- | --- | --- | --- | --- | --- |
| B1 | 24 | 12 % of activity without ATIII | 14 % of activity without ATIII | 46 % of activity without ATIII | 1 % of activity without ATIII | 2 % of activity without ATIII | 1 % of activity without ATIII | 750 |
| B2 | 19 | 14 % of activity without ATIII | 62 % of activity without ATIII | 35 % of activity without ATIII | 2 % of activity without ATIII | 1 % of activity without ATIII | 1 % of activity without ATIII | 450 |
| B3 | 20 | 23 % of activity without ATIII | 93 % of activity without ATIII | 53 % of activity without ATIII | 2 % of activity without ATIII | 1 % of activity without ATIII | 1 % of activity without ATIII | 610 |
